In patent US20130252821A1, “METHODS AND COMPOSITIONS FOR THE TREATMENT AND DIAGNOSIS OF DISEASES CHARACTERIZED BY VASCULAR LEAK, HYPOTENSION, OR A PROCOAGULANT STATE” (Beth Israel Deaconess Medical Center, Inc., priority 2005, published 2013):
Entries after “also recorded” stand apart in the source; their conditions may differ.

Tests used:
Assay type in all cases: cell-based, human
[1] = system: p85 subunit of PI3K; test: PI3K activity assay (p85 phosphorylation ELISA); conditions: Ang-1 100 ng/ml, 15 minutes
Procedure: After signal starvation, HMVEC-L were treated with vehicle or Ang-1 (100 ng/ml) for 15 minutes. Total and phosphorylated p85 subunits of PI3K were quantified using a commercial enzyme-linked immunosorbent assay according to the manufacturer's instruction (Active Motif, Carlsbad, Calif.). Phosphorylated PI3K p85 subunit was corrected by total PI3K.

[2] = system: HMVEC-L monolayer; test: Measurement of endothelial permeability in vitro (FITC-albumin)
Procedure: Coster Transwell membranes (Corning Inc. Corning, N.Y.) were coated with 0.5% Gelatin and cells were grown until confluence. Vehicle or proteins with FITC-albumin (1 mg/ml) was added to the luminal chamber for 4 hours, and samples were taken from both the luminal and abluminal chamber for fluorometry analysis. The readings were converted with the use of a standard curve to albumin concentration. These concentrations were then used in the following equation to determine the permeability coefficient of albumin (Pa).
[A] is abluminal concentration; t is time in seconds; A is area of membrane in cm^2; V is volume of abluminal chamber; and [L] is luminal concentration. siRNA Transfection: HMVEC-Ls were seeded and control small interfering RNA (siRNA) (Ambion, Ausin, Tex.) or siRNA directed to human p190RhoGAP (5′-[…]-3′ SEQ ID NO: 5 and 5′-[…]-3′ SEQ ID NO: 6) was transfected using SilentFect Lipid reagent (Bio-Rad) according to the manufacturer's instructions. The cells were used for each experiment 3 days after transfection. Almost 90-100% cells were transfected with siRNA (checked by fluorescent labeled siRNA). Down-regulation of p190RhoGAP was verified by immunoblotting. We tested two different siRNA for the experiment and obtained similar results.

[3] = system: myosin light chain (MLC) phosphorylation in HMVECs; test: MLC phosphorylation assay (Western blot); conditions: Ang-1 100 ng/ml added
Procedure: After signal starvation with 0.25% FBS EBM-2 for 24 h, cells were treated with 100 ng/ml Ang-2 or vehicle for 0, 1, 3, and 6 hours. Phosphorylated myosin light chain (MLC-p) (phospho-serine 19) and GAPDH were detected by Western blot analysis. For human subject serum effects on HMVECs, serum was diluted to 5% with EBM-2 and filtered with low protein binding PVDF membrane (0.22 μm, Millipore Corp, Bedford, Mass.). Anti-MLC-phospho-serine-19 Ab was obtained from Abcam Inc.

[4] = system: HMVEC-L monolayers; test: Immunostaining of HMVEC-L bathed in HD IL-2 patient serum; conditions: 1:10 serum for 30 minutes, then Ang-1 100 ng/mL
Procedure: Human pulmonary arterial microvascular endothelial cells (HMVECs) (Cambrex Bio Science, Walkersville, Md., United States) cells were cultured in EBM-2 (Cambrex Bio Science) supplemented with 5% fetal bovine serum (FBS) and growth factors according to the manufacturer's instructions. Serum starvation was performed by incubation in 0.25% FBS/EBM-2 for 24 hours.
HMVECs were grown to confluence on glass coverslips coated with 1% gelatin. The cells were fixed for 10 minutes in 4% paraformaldehyde in PBS, and incubated for 5 min in 0.5% Triton X-100 in PBS. After blocking, the monolayers were processed for staining with anti-VE-cadherin monoclonal antibody (BD Biosciences Pharmingen, San Diego, Calif., United States) and Alexa Fluor® 488 goat anti-mouse IgG, rhodamine phalloidin (Molecular Probes, Eugene, Oreg., […]) for F-actin staining and TOPRO-3-iodine (Molecular Probes) for nuclear staining. Fluorescence images were obtained using a Bio Rad MRC confocal fluorescence microscope. For experiments using cells treated with serum from patients, serum Ang-2 concentration was first measured by ELISA. Then, patient serum was diluted to 10% with EBM-2 and filtered with low-protein-binding PVL) F membrane (0.22 lm Millipore) prior to application on EC monolayers.

[5] = system: Akt; test: Akt phosphorylation (Western blot) in HMVEC-L; conditions: Ang-1 100 ng/ml, 15 minutes
Procedure: HMVEC-L were washed with ice-cold PBS three times and lysed with ice-cold RIPA buffer (50 mM Tris-HCl pH7.4, 150 mM NaCl, 1% NP-40, 0.5% Sodium Deoxycholate, 0.1% SDS and 1 mM EDTA) supplemented with protease inhibitors (Roche Diagnostics, Indianapolis, Ind.), 1 mM NaF and 1 mM Na3VO4. Lysates were sonicated and centrifuged at 10,000 rpm for 10 minutes at 4° C., and supernatants were collected. Protein concentrations were determined by BCA protein assay with bovine serum albumin as standard (Pierce, Rockford, Ill.). Lysates were electrophoresed using NuPAGE system (Invitrogen Life Technologies, Franklin Lakes, N.J.) and transferred to PVDF membrane and immunoblotted with specific primary antibodies. Binding of primary antibodies was detected using horseradish peroxidase-conjugated secondary antibodies (Amersham Bioscience, Piscataway, N.J.) and SuperSignal WestDura (Pierce) as a chemiluminescence substrate. Primary antibodies were obtained from these suppliers: anti-phospho-Akt Ab (Ser 473), anti-Akt Ab and anti-phospho-myosin light chain 2 (Ser19) Ab were from Cell Signaling Technology; anti-GAPDH Ab was from Chemicon International (Temecula, Calif.).

[6] = system: p190RhoGAP; test: p190RhoGAP phosphorylation in HMVEC-L; conditions: Ang-1 100 ng/ml
Procedure: We lysed HMVEC-L with Triton buffer (50 mM Tris-HCl pH 8.0, 150 mM NaCl, 1% Triton X 100, and 5 mM EDTA) supplemented with protease inhibitors (Roche Diagnostics), 1 mM NaF and 1 mM Na3VO4, adjusting protein concentration by BCA protein assay (Pierce) and incubated 200 μg of total protein with anti-Tie2-Ab (clone Ab33, Upstate, Lake Placid, N.Y.) or p190RhoGAP Ab (Transduction laboratory, Lexington, Ky.) for 3 hours, followed by incubation with protein A sepharose (Zymed, San Francisco, Calif.) for 2 hours at 4° C. After washing the beads, proteins were eluted by heating in SDS-sample buffer and detected by immunoblotting with anti-phospho-tyrosine (clone 4G10, Upstate), anti-Tie-2 Ab, or anti-p190RhoGAP Ab.

B1: Ang-1: Human recombinant angiopoietin-1 purchased from R&D systems; Tie-2 agonist, endogenous Ang-2 antagonist (protein, listed as Homo sapiens)
chain: MTVFLSFAFLAAILTHIGCSNQRRSPENSGRRYNRIQHGQCAYTFILPEHDGNCRESTTDQYNTNALQRDAPHVEPDFSSQKLQHLEHVMENYTQWLQKLENYIVENMKSEMAQIQQNAVQNHTATMLEIGTSLLSQTAEQTRKLTDVETQVLNQTSRLEIQLLENSLSTYKLEKQLLQQTNEILKIHEKNSLLEHKILEMEGKHKEELDTLKEEKENLQGLVTRQTYIIQELEKQLNRATTNNSVLQKQQLELMDTVHNLVNLCTKEGVLLKGGKREEEKPFRDCADVYQAGFNKSGIYTIYINNMPEPKKVFCNMDVNGGGWTVIQHREDGSLDFQRGWKEYKMGFGNPSGEYWLGNEFIFAITSQRQYMLRIELMDWEGNRAYSQYDRFHIGNEKQNYRLYLKGHTGTAGKQSSLILHGADFSTKDADNDNCMCKCALMLTGGWWFDACGPSNLNGMFYTAGQNHGKLNGIKWHYFKGPSYSLRSTTMMIRPLDF
[1]
  phosphorylation of the p85 subunit of PI3K: induces phosphorylation of the p85 subunit of PI3K
[2]; Ang-1 100 ng/ml, 4 hours
  basal monolayer permeability: somewhat decreased
[2]; LPS with Ang-1
  effect on endotoxin-induced permeability: completely reversed
[3]
  effect on MLC phosphorylation caused by high Ang-2 serum (CE2): inhibited
[4]
  rescue of endothelial disruption by high Ang-2 HD IL-2 patient serum: significant attenuation in stress fiber formation; also recorded: rescue effect of Ang-1 was confirmed
[5]
  Akt phosphorylation: induces Akt phosphorylation
[6]
  phosphorylation of p190RhoGAP: induces phosphorylation of p190RhoGAP
